Test results: patent publication US20180327500A1

Columns and labels:
[1] = target: human MET Fc fusion protein (R&D Systems) (human) (UniProt P08581); test: BLI; MET-Fc saturated with antibody at 80 ug/ml (533 nM), then HGF as competitor at 20 ug/ml
[2] = target: human MET ECD construct with AA 129-143 exchanged to mouse sequence, on HEK293 cells (human); test: flow cytometry on transfected HEK293 cells, normalised to 5D5 binding at 3 ug/ml
[3] = target: human MET ECD construct with H209 mutated to mouse sequence, on HEK293 cells (human) (UniProt P08581); test: as above

Binder | % HGF binding inhibition [1] [%] | % binding compared to 5D5 [2] [%] | % binding compared to 5D5 [3] [%]
28-MET antibody analog (antibody, from another filing, IgG1, V domains shown) VH: QVQLQESGPGLVKPGETLSLTCTVSGGSISGYYWSWIRQAPGKGLEWIGEIYYAGSTLYNPSLKGRVTISVDTSKNQFSLKLSSVTAEDTAVYYCARHYGLDWFGDTGMDVWGQGTLVTVSS VL: DIELTQPPSVSVAPGQSITISCSGDNLGDKYVHWYQQKPGQAPVLVIYDDNERPSGIPERFSGSNSGNTATLTISGTQAEDEADYYCSAYGSHSGTVFGGGTKLTVLG | 50 | – | –
13-MET antibody analog (antibody, from another filing, IgG1, V domains shown) VH: QVQLKESGPALVKPTQTLTLTCTFSGFSLSTSGMVVSWIRQPPGKALEWLAFISWDDDKYYSTSLKTRLTISKDTSKNQVVLTMTNMDPVDTATYYCAREPGRYGGYYFDYWGQGTLVTVSS VL: DIQMTQSPSSLSASVGDRVTITCRASQTISHYLAWYQQKPGKAPKLLIYAASILQSGVPSRFSGSGSGTDFTLTISSLQPEDFAVYYCQQYSGFPVTFGQGTKVEIKR | 81 | – | –
223C4 antibody analog (antibody, from another filing, IgG1, V domains shown) VH: EVLLQQSGPELVKPGASVKIPCKASGYTFTDYNMDWVKQSHGMSLEWIGDINPNNGGTIFNQKFKGKATLTVDKSSSTAYMELRSLTSEDTAVYYCARGRYVGYYYAMDYWGQGTSVTVSS VL: DIQMTQSPASLSVSVGETVTITCRASENIYSNLAWYQQKQGKSPQLLVYAATNLVDGVPSRFSGSGSGTQYSLKINSLQSEDFGSYYCQHFWGPPYTFGGGTKLEIK | 69 | – | –
36C4 antibody analog (antibody, from another filing, IgG1, V domains shown) VH: QVQLVESGPGLVKPSQTLSLTCAVSGGSITTNYYYWSWIRQSPGKGLEWMGVIAYDGSTDYSPSLKSRTSISRDTSKNQFSLQLSSVTPEDTAVYYCARDVRVIATGWATANALDAWGQGTLVTVSS VL: QSVLTQPPSVSGSPGKTVTISCAGTSSDVGYGNYVSWYQQLPGTAPKLLIFAVSYRASGIPDRFSGSKSGNTAFLTISGLQSEDEADYYCASYRSSNNAAVFGGGTHLTVL | 74 | 58 | 43
